Data published in US20240309103A1 (Regeneron, published 2024).

What was measured:
mfNPR1-mFc [1] = target: T1, mfNPR1-mFc (monkey); assay: SPR, mAb captured, 25C
T1 construct: also called dimeric monkey NPR1
T1 chain: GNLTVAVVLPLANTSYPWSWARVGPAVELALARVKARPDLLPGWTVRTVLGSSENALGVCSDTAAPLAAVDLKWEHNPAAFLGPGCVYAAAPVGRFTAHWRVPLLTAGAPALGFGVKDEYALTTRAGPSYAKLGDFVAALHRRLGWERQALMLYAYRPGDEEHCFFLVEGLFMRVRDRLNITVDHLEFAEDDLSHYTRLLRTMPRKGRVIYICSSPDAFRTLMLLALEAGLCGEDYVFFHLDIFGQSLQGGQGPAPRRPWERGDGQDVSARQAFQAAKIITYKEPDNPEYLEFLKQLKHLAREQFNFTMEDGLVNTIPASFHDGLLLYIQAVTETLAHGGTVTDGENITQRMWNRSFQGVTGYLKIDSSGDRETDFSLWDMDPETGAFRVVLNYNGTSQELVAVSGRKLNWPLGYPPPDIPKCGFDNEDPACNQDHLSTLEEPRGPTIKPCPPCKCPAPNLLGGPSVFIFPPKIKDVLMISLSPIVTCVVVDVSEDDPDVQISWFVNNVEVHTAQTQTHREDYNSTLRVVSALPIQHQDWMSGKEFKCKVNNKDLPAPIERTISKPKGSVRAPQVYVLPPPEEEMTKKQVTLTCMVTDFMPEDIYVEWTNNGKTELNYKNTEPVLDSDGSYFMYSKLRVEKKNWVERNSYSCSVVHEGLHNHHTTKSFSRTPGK
Protocol: (§1) Equilibrium dissociation constant (KD) for different NPR1 reagents binding to purified anti-NPR1 monoclonal antibodies (mAbs) were determined using a real-time surface plasmon resonance based Biacore 4000 biosensor. All binding studies were performed in 10 mM HEPES, 150 mM NaCl, 3 mM EDTA, and 0.05% v/v Surfactant Tween-20, pH 7.4 (HBS-ET) running buffer at 25° C. and 37° C. The Biacore CM5 sensor chip surface was first derivatized by amine coupling with either mouse anti-human Fc specific mAb (GE Healthcare, #BR100839) or goat anti-human Fcy specific polyclonal antibody (Jackson ImmunoResearch Laboratories, #BR-1008-39) to capture anti-NPR1 mAbs.

hNPR1-mFc:hBNP complex [2] = target: T2, hNPR1-mFc:hBNP complex (human, UniProt P16860 103-134); assay: SPR, mAb captured, 25C
T2 construct: also called human NPR1 complexed to BNP
Protocol: as §1

mfNPR1-mFc:hBNP complex = target: T3, mfNPR1-mFc:hBNP complex (monkey; human, UniProt P16860 103-134); assay: SPR, mAb captured, 25C
T3 construct: also called monkey NPR1 complexed to BNP
Protocol: as §1

[3] = target: T4, hNPR1-mFc:hANP or hNPR1-hFc:hANP complex (human, UniProt P01160 124-151); assay: SPR, mAb captured, 25C
T4 construct: also called human NPR1 complexed to ANP
Protocol: as §1

mfNPR1-mFc:hANP complex [4] = target: T5, mfNPR1-mFc:hANP complex (monkey; human, UniProt P01160 124-151); assay: SPR, mAb captured, 25C
T5 construct: also called monkey NPR1 complexed to ANP
Protocol: as §1

mfNPR1-mFc [5] = target: T1, mfNPR1-mFc; assay: SPR, mAb captured, 37C
Protocol: as §1

hNPR1-mFc:hBNP complex [6] = target: T2, hNPR1-mFc:hBNP complex; assay: SPR, mAb captured, 37C
Protocol: as §1

[7] = target: T4, hNPR1-mFc:hANP or hNPR1-hFc:hANP complex; assay: SPR, mAb captured, 37C
Protocol: as §1

mfNPR1-mFc:hANP complex [8] = target: T5, mfNPR1-mFc:hANP complex; assay: SPR, mAb captured, 37C
Protocol: as §1

B1: mAb22035 (antibody, human IgG4, V domains shown)
VH: EVQLVESGGGLVQPGRSLRLSCAASGFTFDDYAMHWVRQAPGKGLEWVSGISWNSGTIGYADSVKGRFTMSRDNAKNSLYLQMNSLRPEDTALYYCAKDMGVSLALWGAFDIWGQGTMVTVSS
VL: DIQMTQSPSSLSASVGDKVTITCRASQNIRTYLNWYQQKPGKAPKVLISTASSLQSGVPSRFSGSGSGTDFTLTISSLQPEDFAVFYCQQSFGIPRTFGQGTKVEIK
100 nM Ag Bound (RU) (mfNPR1-mFc [1]): 231 RU | Kd (mfNPR1-mFc [1]): 229 pM | koff (mfNPR1-mFc [1]): 5.57e-05 s⁻¹ | kon (mfNPR1-mFc [1]): 244000 M⁻¹ s⁻¹ | t½ (mfNPR1-mFc [1]): 3.45 h | 100 nM Ag Bound (RU) (hNPR1-mFc:hBNP complex [2]): 194 RU | Kd (hNPR1-mFc:hBNP complex [2]): 508 pM | koff (hNPR1-mFc:hBNP complex [2]): 8.7e-05 s⁻¹ | kon (hNPR1-mFc:hBNP complex [2]): 171000 M⁻¹ s⁻¹ | t½ (hNPR1-mFc:hBNP complex [2]): 2.21 h | 100 nM Ag Bound (RU) (mfNPR1-mFc:hBNP complex): 231 RU | Kd (mfNPR1-mFc:hBNP complex): 300 pM | koff (mfNPR1-mFc:hBNP complex): 6.13e-05 s⁻¹ | kon (mfNPR1-mFc:hBNP complex): 205000 M⁻¹ s⁻¹ | t½ (mfNPR1-mFc:hBNP complex): 3.14 h | 100 nM Ag Bound (RU) [3]: 186 RU | Kd [3]: 434 pM | koff [3]: 7.78e-05 s⁻¹ | kon [3]: 179000 M⁻¹ s⁻¹ | t½ [3]: 2.47 h | 100 nM Ag Bound (RU) (mfNPR1-mFc:hANP complex [4]): 227 RU | Kd (mfNPR1-mFc:hANP complex [4]): 246 pM | koff (mfNPR1-mFc:hANP complex [4]): 4.66e-05 s⁻¹ | kon (mfNPR1-mFc:hANP complex [4]): 189000 M⁻¹ s⁻¹ | t½ (mfNPR1-mFc:hANP complex [4]): 4.13 h | 100 nM Ag Bound (RU) (mfNPR1-mFc [5]): 291 RU | Kd (mfNPR1-mFc [5]): 184 pM | koff (mfNPR1-mFc [5]): 8.44e-05 s⁻¹ | kon (mfNPR1-mFc [5]): 459000 M⁻¹ s⁻¹ | t½ (mfNPR1-mFc [5]): 2.28 h | 100 nM Ag Bound (RU) (hNPR1-mFc:hBNP complex [6]): 243 RU | Kd (hNPR1-mFc:hBNP complex [6]): 553 pM | koff (hNPR1-mFc:hBNP complex [6]): 0.000128 s⁻¹ | kon (hNPR1-mFc:hBNP complex [6]): 232000 M⁻¹ s⁻¹ | t½ (hNPR1-mFc:hBNP complex [6]): 1.5 h | 100 nM Ag Bound (RU) [7]: 237 RU | Kd [7]: 508 pM | koff [7]: 0.000114 s⁻¹ | kon [7]: 225000 M⁻¹ s⁻¹ | t½ [7]: 1.68 h | 100 nM Ag Bound (RU) (mfNPR1-mFc:hANP complex [8]): 283 RU | Kd (mfNPR1-mFc:hANP complex [8]): 302 pM | koff (mfNPR1-mFc:hANP complex [8]): 7.7e-05 s⁻¹ | kon (mfNPR1-mFc:hANP complex [8]): 255000 M⁻¹ s⁻¹ | t½ (mfNPR1-mFc:hANP complex [8]): 2.5 h

B2: mAb22809 (antibody, human IgG4, V domains shown)
VH: QLQLRESGPGLVKPSETLSLTCTVSGGSINDNSFFWDWIRQTPGRGLEWIGNIFFDGNTYYTPSLKSRVIISVDMSQNQFSLRLTSVTAADTALYYCARHKRSMTAWGFFDYWGQGTLVTVSS
VL: DIQMTQSPSSLSASVGDRVTITCRASKRINTYLNWYQQKPGKAPKVLIYSASNLQSGVPSRFSGSGSGTDFTLTINSLQPEDFATYFCQQSFSAPPITFGQGTRLEIK
100 nM Ag Bound (RU) (mfNPR1-mFc [1]): 6 RU | binding result (mfNPR1-mFc [1]): no binding (tested: 100 nM) | 100 nM Ag Bound (RU) (hNPR1-mFc:hBNP complex [2]): 51 RU | Kd (hNPR1-mFc:hBNP complex [2]): 6720 pM | koff (hNPR1-mFc:hBNP complex [2]): 0.000221 s⁻¹ | kon (hNPR1-mFc:hBNP complex [2]): 32800 M⁻¹ s⁻¹ | t½ (hNPR1-mFc:hBNP complex [2]): 0.873 h | 100 nM Ag Bound (RU) (mfNPR1-mFc:hBNP complex): 80 RU | Kd (mfNPR1-mFc:hBNP complex): 3850 pM | koff (mfNPR1-mFc:hBNP complex): 0.00016 s⁻¹ | kon (mfNPR1-mFc:hBNP complex): 41400 M⁻¹ s⁻¹ | t½ (mfNPR1-mFc:hBNP complex): 1.21 h | 100 nM Ag Bound (RU) [3]: 53 RU | Kd [3]: 4940 pM | koff [3]: 0.000193 s⁻¹ | kon [3]: 39200 M⁻¹ s⁻¹ | t½ [3]: 0.995 h | 100 nM Ag Bound (RU) (mfNPR1-mFc:hANP complex [4]): 86 RU | Kd (mfNPR1-mFc:hANP complex [4]): 3880 pM | koff (mfNPR1-mFc:hANP complex [4]): 0.000173 s⁻¹ | kon (mfNPR1-mFc:hANP complex [4]): 44700 M⁻¹ s⁻¹ | t½ (mfNPR1-mFc:hANP complex [4]): 1.11 h | 100 nM Ag Bound (RU) (mfNPR1-mFc [5]): 8 RU | 100 nM Ag Bound (RU) (hNPR1-mFc:hBNP complex [6]): 63 RU | Kd (hNPR1-mFc:hBNP complex [6]): 3560 pM | koff (hNPR1-mFc:hBNP complex [6]): 0.000166 s⁻¹ | kon (hNPR1-mFc:hBNP complex [6]): 46500 M⁻¹ s⁻¹ | t½ (hNPR1-mFc:hBNP complex [6]): 1.16 h | 100 nM Ag Bound (RU) [7]: 68 RU | Kd [7]: 3290 pM | koff [7]: 0.000166 s⁻¹ | kon [7]: 50400 M⁻¹ s⁻¹ | t½ [7]: 1.16 h | 100 nM Ag Bound (RU) (mfNPR1-mFc:hANP complex [8]): 106 RU | Kd (mfNPR1-mFc:hANP complex [8]): 3700 pM | koff (mfNPR1-mFc:hANP complex [8]): 0.000205 s⁻¹ | kon (mfNPR1-mFc:hANP complex [8]): 55500 M⁻¹ s⁻¹ | t½ (mfNPR1-mFc:hANP complex [8]): 0.937 h
